Assay results: patent US20240261333A1, “NOVEL TARGETS FOR ENHANCING ANTI-TUMOR IMMUNITY” (THE BROAD INSTITUTE, INC., priority 2021, published 2024)

Legend:
PURA (human) = PURA (human) (UniProt Q00577); experiment: co-IP with IgG control, lysate of C-FLAG B3GNT2 cells, mass spectrometry
PSMA3 (human) = PSMA3 (human) (UniProt P25788); experiment: as above
RPS20 (human) = RPS20 (human) (UniProt P60866); experiment: as above
RUVBL2 (human) = RUVBL2 (human) (UniProt Q9Y230); experiment: as above
COPA (human) = COPA (human) (UniProt P53621); experiment: as above
DDX3X (human) = DDX3X (human) (UniProt O00571); experiment: as above
P4HA2 (human) = P4HA2 (human) (UniProt O15460); experiment: as above
XPO1 (human) = XPO1 (human) (UniProt O14980); experiment: as above
HNRNPH1 (human) = HNRNPH1 (human) (UniProt P31943); experiment: as above
MMS19 (human) = MMS19 (human) (UniProt Q96T76); experiment: as above
ARPC1B (human) = ARPC1B (human) (UniProt O15143); experiment: as above
TTC13 (human) = TTC13 (human) (UniProt Q8NBP0); experiment: as above
TGM1 (human) = TGM1 (human) (UniProt P22735); experiment: as above
PLOD1 (human) = PLOD1 (human) (UniProt Q02809); experiment: as above
[1] = target: P0AA25.2 [thioredoxin: P0AA25]; experiment: as above
CPSF7 (human) = CPSF7 (human) (UniProt Q8N684); experiment: as above
CPT1A (human) = CPT1A (human) (UniProt P50416); experiment: as above
NAP1L1 (human) = NAP1L1 (human) (UniProt P55209); experiment: as above
LAMC1 (human) = LAMC1 (human) (UniProt P11047); experiment: as above
SBSN (human) = SBSN (human) (UniProt Q6UWP8); experiment: as above
RBM14 (human) = RBM14 (human) (UniProt Q96PK6); experiment: as above
SRSF6 (human) = SRSF6 (human) (UniProt Q13247); experiment: as above
DDX17 (human) = DDX17 (human) (UniProt Q92841); experiment: as above
PRRC2C (human) = PRRC2C (human) (UniProt Q9Y520); experiment: as above
TM9SF1 (human) = TM9SF1 (human) (UniProt O15321); experiment: as above
HBB (human) = HBB (human) (UniProt P68871); experiment: as above
RPL17 (human) = RPL17 (human) (UniProt P18621); experiment: as above
CLTC (human) = CLTC (human) (UniProt Q00610); experiment: as above
TPM2 (human) = TPM2 (human) (UniProt P07951); experiment: as above
RPL6 (human) = RPL6 (human) (UniProt Q02878); experiment: as above
XPOT (human) = XPOT (human) (UniProt O43592); experiment: as above
LUC7L3 (human) = LUC7L3 (human) (UniProt O95232); experiment: as above
RPL18 (human) = RPL18 (human) (UniProt Q07020); experiment: co-IP, anti-FLAG, lysate of cells with N-FLAG B3GNT2; mass spectrometry

Chain of PRRC2C (human) (Q9Y520 other isoform, or with tags, fused parts or gaps limits assumed): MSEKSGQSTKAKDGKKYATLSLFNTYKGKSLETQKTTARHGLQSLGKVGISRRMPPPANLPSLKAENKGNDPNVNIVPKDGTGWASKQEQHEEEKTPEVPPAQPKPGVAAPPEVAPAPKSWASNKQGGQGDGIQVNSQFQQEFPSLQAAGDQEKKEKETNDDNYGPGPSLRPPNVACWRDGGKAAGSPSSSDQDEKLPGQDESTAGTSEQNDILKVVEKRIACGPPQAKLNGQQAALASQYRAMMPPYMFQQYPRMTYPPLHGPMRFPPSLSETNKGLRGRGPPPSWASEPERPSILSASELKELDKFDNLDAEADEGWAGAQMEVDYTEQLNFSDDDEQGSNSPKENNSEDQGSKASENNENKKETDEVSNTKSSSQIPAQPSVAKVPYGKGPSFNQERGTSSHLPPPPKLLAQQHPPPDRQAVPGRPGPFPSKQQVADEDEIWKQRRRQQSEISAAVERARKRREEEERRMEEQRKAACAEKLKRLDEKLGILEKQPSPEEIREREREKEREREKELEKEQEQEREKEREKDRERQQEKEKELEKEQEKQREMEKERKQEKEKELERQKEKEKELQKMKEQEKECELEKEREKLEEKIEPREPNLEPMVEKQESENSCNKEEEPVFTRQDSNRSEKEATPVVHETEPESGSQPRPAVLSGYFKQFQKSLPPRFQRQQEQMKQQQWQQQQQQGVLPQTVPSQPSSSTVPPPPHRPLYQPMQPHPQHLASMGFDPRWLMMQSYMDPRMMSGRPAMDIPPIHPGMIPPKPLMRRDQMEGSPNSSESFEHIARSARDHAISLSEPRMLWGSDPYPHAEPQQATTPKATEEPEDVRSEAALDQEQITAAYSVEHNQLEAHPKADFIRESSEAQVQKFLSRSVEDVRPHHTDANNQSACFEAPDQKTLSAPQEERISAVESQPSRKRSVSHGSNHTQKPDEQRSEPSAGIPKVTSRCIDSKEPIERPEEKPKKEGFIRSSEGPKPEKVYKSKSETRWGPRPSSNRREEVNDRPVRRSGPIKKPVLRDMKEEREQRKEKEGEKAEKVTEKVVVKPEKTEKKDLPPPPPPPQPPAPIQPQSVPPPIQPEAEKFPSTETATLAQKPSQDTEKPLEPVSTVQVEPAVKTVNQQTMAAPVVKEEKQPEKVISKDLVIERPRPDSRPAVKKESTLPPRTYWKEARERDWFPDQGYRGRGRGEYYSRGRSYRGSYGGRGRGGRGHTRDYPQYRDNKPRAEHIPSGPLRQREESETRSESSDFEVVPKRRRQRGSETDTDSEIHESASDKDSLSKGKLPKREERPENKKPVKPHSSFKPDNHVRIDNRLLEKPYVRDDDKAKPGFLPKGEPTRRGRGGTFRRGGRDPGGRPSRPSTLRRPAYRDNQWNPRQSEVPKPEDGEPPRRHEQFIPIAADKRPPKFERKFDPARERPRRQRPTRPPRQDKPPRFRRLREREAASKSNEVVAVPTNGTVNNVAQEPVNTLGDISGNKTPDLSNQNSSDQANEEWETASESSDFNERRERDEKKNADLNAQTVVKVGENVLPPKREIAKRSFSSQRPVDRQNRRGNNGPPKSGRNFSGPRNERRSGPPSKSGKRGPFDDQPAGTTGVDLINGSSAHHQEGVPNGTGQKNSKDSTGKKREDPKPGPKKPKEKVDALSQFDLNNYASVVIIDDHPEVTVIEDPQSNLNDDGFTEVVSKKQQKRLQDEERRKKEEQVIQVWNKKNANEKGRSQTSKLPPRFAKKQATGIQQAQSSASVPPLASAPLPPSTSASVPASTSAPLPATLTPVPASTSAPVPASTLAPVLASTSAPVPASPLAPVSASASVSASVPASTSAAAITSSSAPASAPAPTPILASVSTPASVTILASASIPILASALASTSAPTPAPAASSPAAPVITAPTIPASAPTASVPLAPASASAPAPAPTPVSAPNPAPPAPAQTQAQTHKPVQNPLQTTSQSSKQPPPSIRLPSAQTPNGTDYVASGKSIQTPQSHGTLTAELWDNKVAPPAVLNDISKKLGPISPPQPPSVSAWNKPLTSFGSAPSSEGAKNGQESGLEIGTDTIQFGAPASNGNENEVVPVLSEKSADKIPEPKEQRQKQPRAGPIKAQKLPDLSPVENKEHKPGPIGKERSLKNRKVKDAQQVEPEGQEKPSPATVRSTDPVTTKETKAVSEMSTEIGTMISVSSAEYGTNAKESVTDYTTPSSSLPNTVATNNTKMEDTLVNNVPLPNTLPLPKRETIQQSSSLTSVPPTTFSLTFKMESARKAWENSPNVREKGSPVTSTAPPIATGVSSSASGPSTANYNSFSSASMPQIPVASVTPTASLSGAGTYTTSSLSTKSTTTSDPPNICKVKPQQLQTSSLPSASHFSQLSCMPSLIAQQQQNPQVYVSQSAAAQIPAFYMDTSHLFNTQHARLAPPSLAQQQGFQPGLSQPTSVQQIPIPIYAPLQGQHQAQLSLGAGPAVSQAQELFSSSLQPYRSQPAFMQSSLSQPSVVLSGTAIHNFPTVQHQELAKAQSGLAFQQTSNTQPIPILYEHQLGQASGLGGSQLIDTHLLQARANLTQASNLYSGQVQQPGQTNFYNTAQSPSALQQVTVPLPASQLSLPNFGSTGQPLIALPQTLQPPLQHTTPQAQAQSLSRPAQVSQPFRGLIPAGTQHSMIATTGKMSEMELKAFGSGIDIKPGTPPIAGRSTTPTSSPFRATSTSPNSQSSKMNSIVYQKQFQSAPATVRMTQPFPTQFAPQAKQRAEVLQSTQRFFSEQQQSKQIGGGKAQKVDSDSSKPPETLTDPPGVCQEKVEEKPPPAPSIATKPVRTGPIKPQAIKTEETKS
Chain of TGM1 (human) (P22735 whole entry): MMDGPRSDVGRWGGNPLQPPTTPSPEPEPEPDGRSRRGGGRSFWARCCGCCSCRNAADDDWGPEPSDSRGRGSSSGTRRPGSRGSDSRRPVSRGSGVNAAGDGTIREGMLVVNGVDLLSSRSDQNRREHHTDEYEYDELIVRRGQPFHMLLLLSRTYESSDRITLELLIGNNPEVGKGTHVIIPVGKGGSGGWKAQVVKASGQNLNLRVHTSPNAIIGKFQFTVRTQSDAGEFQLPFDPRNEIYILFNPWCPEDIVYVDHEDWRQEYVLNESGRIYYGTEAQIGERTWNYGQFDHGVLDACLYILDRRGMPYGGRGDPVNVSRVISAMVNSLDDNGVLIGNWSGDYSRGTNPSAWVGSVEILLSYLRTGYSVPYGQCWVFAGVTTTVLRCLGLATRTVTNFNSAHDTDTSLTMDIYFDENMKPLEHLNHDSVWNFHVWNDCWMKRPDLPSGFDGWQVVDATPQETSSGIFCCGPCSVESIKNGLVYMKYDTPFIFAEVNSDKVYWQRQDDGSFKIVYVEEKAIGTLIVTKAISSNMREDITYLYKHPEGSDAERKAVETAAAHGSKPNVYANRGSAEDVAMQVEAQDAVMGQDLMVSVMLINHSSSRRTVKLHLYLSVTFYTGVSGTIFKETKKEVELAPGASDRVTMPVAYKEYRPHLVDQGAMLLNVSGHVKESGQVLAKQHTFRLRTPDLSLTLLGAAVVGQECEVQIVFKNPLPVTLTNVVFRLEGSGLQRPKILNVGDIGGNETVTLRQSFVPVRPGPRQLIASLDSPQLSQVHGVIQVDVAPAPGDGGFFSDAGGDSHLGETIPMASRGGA
Chain of MMS19 (human) (Q96T76 other isoform, or with tags, fused parts or gaps limits assumed): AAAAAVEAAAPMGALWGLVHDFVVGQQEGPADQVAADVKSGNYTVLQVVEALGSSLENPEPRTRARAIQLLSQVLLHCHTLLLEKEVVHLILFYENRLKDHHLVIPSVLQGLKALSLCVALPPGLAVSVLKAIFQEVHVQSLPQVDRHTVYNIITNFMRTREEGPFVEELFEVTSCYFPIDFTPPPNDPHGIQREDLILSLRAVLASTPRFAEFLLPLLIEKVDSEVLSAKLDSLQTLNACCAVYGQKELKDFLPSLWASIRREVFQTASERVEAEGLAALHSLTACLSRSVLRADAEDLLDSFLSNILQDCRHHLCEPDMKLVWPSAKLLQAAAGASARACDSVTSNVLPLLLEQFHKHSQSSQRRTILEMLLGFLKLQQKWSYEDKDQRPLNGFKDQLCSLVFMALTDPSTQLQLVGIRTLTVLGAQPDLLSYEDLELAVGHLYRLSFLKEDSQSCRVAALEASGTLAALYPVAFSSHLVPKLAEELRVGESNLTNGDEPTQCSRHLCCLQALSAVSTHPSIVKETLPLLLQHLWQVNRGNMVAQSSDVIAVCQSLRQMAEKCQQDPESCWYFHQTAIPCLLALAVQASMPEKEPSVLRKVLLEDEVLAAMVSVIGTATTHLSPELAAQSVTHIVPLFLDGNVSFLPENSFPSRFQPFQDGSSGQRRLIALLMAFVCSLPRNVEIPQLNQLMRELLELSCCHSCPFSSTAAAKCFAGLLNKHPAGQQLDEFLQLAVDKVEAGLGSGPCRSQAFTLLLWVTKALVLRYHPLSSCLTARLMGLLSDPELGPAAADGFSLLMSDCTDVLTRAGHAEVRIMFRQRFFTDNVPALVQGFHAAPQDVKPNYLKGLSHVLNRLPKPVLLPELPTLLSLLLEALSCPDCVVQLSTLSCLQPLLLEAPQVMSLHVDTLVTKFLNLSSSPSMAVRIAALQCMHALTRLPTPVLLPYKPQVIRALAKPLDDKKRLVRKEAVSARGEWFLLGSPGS
Chain of PURA (human) (Q00577 2-322 limits assumed): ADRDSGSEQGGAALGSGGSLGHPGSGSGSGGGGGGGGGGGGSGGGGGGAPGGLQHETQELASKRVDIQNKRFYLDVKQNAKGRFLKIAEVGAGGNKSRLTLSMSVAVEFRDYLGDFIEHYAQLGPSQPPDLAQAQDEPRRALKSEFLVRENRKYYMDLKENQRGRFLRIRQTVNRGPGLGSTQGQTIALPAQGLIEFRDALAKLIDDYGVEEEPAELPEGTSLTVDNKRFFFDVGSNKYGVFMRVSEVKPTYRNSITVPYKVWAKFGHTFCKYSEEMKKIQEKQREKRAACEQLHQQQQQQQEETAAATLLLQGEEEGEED
Chain of HBB (human) (P68871 2-147 limits assumed): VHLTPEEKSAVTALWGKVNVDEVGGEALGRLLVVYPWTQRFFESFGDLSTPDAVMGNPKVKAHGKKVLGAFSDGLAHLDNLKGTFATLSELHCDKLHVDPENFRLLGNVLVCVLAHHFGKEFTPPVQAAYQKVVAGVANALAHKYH

With “IgG control (Millipore Sigma 12-371) (antibody)” the co-IP/MS count, C-term IgG (PURA (human)) was 0, the co-IP/MS count, C-term IgG (PSMA3 (human)) was 0 and the co-IP/MS count, C-term IgG (RPS20 (human)) was 5. The co-IP/MS count, C-term IgG (RUVBL2 (human)) was 0, the co-IP/MS count, C-term IgG (COPA (human)) was 0 and the co-IP/MS count, C-term IgG (DDX3X (human)) was 15. The co-IP/MS count, C-term IgG (P4HA2 (human)) was 0, the co-IP/MS count, C-term IgG (XPO1 (human)) was 0 and the co-IP/MS count, C-term IgG (HNRNPH1 (human)) was 11. It also gave a co-IP/MS count, C-term IgG (MMS19 (human)) of 0, a co-IP/MS count, C-term IgG (ARPC1B (human)) of 2 and a co-IP/MS count, C-term IgG (TTC13 (human)) of 0. It also gave a co-IP/MS count, C-term IgG (TGM1 (human)) of 10, a co-IP/MS count, C-term IgG (PLOD1 (human)) of 0 and a co-IP/MS count, C-term IgG [1] of 8. For the same substance, the co-IP/MS count, C-term IgG (CPSF7 (human)) was 9, the co-IP/MS count, C-term IgG (CPT1A (human)) was 0 and the co-IP/MS count, C-term IgG (NAP1L1 (human)) was 0. For the same substance, the co-IP/MS count, C-term IgG (LAMC1 (human)) was 0, the co-IP/MS count, C-term IgG (SBSN (human)) was 15 and the co-IP/MS count, C-term IgG (RBM14 (human)) was 0. The co-IP/MS count, C-term IgG (SRSF6 (human)) was 5, the co-IP/MS count, C-term IgG (DDX17 (human)) was 22 and the co-IP/MS count, C-term IgG (PRRC2C (human)) was 6. For the same substance, the co-IP/MS count, C-term IgG (TM9SF1 (human)) was 0, the co-IP/MS count, C-term IgG (HBB (human)) was 0 and the co-IP/MS count, C-term IgG (RPL17 (human)) was 2. It also gave a co-IP/MS count, C-term IgG (CLTC (human)) of 5, a co-IP/MS count, C-term IgG (TPM2 (human)) of 0 and a co-IP/MS count, C-term IgG (RPL6 (human)) of 4. The co-IP/MS count, C-term IgG (XPOT (human)) was 0 and the co-IP/MS count, C-term IgG (LUC7L3 (human)) was 3.

In the case of “N-terminal FLAG tagged B3GNT2 (from UniProt Q9NY97 1-397) (enzyme)”, the co-IP mass spectrometry count (RPL18 (human)) is reported as 11.
